Experimental findings from patent US20160053025A1 (SAMSUNG ELECTRONICS, published 2016) are described below.

For experiment [1], the target named is T1, recombinant hAng-2 (C-His, R&D Systems) (human, UniProt O15123 19-496).
T1 construct: Bought protein; also called human Ang-2 protein; C-terminal histidine-tagged human Ang2 (R&D Systems); not shown: C-terminal His tag
T1 sequence: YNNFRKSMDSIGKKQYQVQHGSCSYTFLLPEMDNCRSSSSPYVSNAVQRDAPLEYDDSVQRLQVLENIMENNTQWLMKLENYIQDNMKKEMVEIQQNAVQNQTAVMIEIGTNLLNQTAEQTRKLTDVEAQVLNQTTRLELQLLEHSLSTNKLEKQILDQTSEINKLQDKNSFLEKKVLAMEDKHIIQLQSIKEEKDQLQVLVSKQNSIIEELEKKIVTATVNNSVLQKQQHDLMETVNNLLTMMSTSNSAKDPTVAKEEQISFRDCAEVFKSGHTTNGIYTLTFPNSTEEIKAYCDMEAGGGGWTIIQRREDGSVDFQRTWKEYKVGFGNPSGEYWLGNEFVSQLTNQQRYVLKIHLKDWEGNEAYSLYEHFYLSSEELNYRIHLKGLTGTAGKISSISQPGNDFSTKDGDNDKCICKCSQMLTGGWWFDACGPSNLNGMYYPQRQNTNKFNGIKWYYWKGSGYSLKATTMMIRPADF
Description: SPR, BIAcore T100; hAng-2 (C-His) captured by anti-His antibody on CM5, antibody as analyte. How it is done: First, anti-His antibody was immobilized on a CM5 sensor chip (GE healthcare) up to 8,000 RU levels using a pH 5.0 acetate solution and an amine coupling kit (GE Healthcare). 6 μg/ml of a recombinant hAng-2 (C-His, R&D Systems) protein was flowed onto the chip to be captured at 100 to 200 RU levels.
(In general: SPR reads the build-up and loss of mass on a sensor chip optically.)

In the next experiment the target is T2, BSA (Bos taurus, UniProt P02769).
T2 construct: commercial preparation; also called Bovine serum albumin; Sigma
T2 sequence (P02769 25-607 limits assumed): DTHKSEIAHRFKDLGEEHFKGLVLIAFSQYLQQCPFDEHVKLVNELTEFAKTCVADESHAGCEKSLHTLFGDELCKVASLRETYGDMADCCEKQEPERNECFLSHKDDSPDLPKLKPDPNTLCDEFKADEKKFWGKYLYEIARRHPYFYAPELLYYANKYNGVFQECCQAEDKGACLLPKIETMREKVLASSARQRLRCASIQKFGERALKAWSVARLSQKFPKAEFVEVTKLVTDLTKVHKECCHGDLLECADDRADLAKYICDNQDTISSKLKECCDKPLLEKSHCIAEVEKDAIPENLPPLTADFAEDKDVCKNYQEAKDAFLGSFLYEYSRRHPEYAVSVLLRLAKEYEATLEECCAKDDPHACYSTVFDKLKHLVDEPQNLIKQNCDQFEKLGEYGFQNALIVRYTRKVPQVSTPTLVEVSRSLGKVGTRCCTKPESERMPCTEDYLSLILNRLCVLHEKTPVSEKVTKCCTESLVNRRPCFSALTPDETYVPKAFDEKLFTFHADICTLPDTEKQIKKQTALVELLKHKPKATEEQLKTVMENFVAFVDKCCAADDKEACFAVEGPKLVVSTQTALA
Description: Complex ELISA: plate coated with BSA, 10D6 2 ug/ml with or without FLAG-Ang2 0.25 ug/ml, anti-mouse IgG-HRP, OD450. The procedure: A 96-well MaxiSorp™ flat-bottom plate (Nunc) was coated with 4 μg/ml of Tie2-Fc (R&D systems) or BSA (Sigma). Then, the plate was washed five times with 0.05% (v/v) Tween-20-containing PBS (Phosphate Buffer Saline) and blocked with 1% (v/v) BSA (Bovine serum albumin; Sigma)-containing PBS at a room temperature for 2 hours. 0.25 μg/ml of Ang2 and 2 μg/ml of 10D6 antibody were added to each well of the plate, which was allowed to react at a room temperature for 2 hours and then washed five times with PBST. After that, an anti-mouse IgG antibody (Sigma) conjugated with HRP diluted in 1% (v/v) BSA-containing PBS at a ratio of 1:5,000 (v/v) was added in an amount of 100 ul to each well to react at a room temperature for 1 hour and then, the plate was washed five times with PBST. Lastly, 100 ul (microliter) of TMB substrate (Cell Signaling) was added to each well of the plate to induce color development for 3 min. and then, the reaction was ceased by the addition of 100 ul of Stop solution (Cell Signaling) and OD450 values were measured on a plate reader (Molecular Devices).
For orientation: ELISA stands for enzyme-linked immunosorbent assay.

Experiment [2] deals with T3, Ang2 RBD I434A, FLAG-tagged (human, UniProt O15123 281-496, limits assumed).
T3 construct: Printed as '1434', read as I434
T3 chain: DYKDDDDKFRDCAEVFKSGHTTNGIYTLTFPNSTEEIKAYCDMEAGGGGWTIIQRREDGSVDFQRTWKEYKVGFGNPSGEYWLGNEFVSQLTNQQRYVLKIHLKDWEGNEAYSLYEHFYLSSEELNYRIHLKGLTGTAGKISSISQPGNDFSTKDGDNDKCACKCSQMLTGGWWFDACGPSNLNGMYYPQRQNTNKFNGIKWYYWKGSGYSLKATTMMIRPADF
Description: ELISA, antibody coated, FLAG-tagged mutant Ang2 RBD detected with anti-FLAG-HRP. The procedure: (§1) To verify the epitope (or specific binding site) of the anti-Ang2 antibody prepared in Reference Example 2.3, an ELISA was performed using a recombinant protein where a receptor binding domain (RBD) of Ang2 protein in the form of being tagged with Flag was mutated by artificial means.
(§2) Each well of a 96-well MaxiSorp™ flat-bottom plate (Nunc) was coated with 50 ul (microliter) of 1000 nM antibody. Then, the plate was washed five times with 0.05% (v/v) Tween-20-containing PBS (PBST) and blocked with 1% (v/v) BSA-containing PBS at a room temperature for 2 hours. 250 ng of each mutant Ang2 protein obtained by substituting S417, Q418, P419, N421, 1434, D448, A449, P452, Y460, N467, K468, or F469 residue of Ang2 protein tagged with a FLAG sequence ([…], Sigma) at its N-terminal with alanine was added to each well of the plate, which was then allowed to react at a room temperature for 2 hours.
(§3) Finally, 50 ul of TMB substrates (Cell signaling) was added to each well of the plate to induce color development at a room temperature for 3 min. and the reaction was ceased by the addition of 50 ul of Stop solution (Cell signaling) and then, OD450 values were measured on a plate reader (Molecular Devices). By comparing binding affinities with mutated Ang2 to those of unmutated Ang2, each epitope of Ang2 antibodies was identified. The obtained measurement results of the binding affinities (%) with mutant Ang2 against the binding affinity with the native Ang2 are shown in the following Table 13.

Experiment [3] addresses T4, Ang2 RBD N421A, FLAG-tagged (human, UniProt O15123 281-496, limits assumed).
T4 chain: T3 chain with N149A, A162I
The experiment is described as above. The procedure: as §1, §2, §3

In experiment [4] the target is Ang2 RBD A449 mutant (with alanine), FLAG-tagged (human) (UniProt O15123). The description is as above.

Changes are numbered by the printed parent chain.

B1: SAIT-ANG2-AB-m10D6 (antibody, V domains shown)
VH: DVQLQESGPDLVKPSQSLSLTCTVTGYSITSDYAWNWIRQFPGNKLEWMGYINYSGNTDYNPSLKSRSSITRDTSKNQFFLQLNSVTTGDTATYYCARGNFEGAMDYWGQGTSVTVSS
VL: SIVMTQTPKFLLVSAGDRVTITCKASQSVSNDVAWYQQKPGQSPKLLIYYASNRYPGVPDRFTGSGYGTDFTFTISTVQAEDLAVYFCQQDYSSPWTFGGGTKLEIK
notes: Mouse monoclonal antibody purified from a hybridoma (KCLRF-BP-00295); it is not applied here; also called mouse antibody 10D6; 10D6 antibody
The Kd is the free concentration of one partner at which half of the binding sites on the other are occupied at equilibrium, for simple one-to-one binding. On to B1, for which, in experiment [1], the dissociation constant Kd came out at 8 nM. The binding result with BSA is “no binding (tested: 2 ug/ml)”. Also, the “binding affinity (%) with mutant Ang2 against the binding affinity with the native Ang2” value in experiment [2] was found to be 109%; in experiment [3], 109%; in experiment [4] it was 97.9%.
